Paper PMC5041073

Molecular target: Dbf4(5)Rad53 chimera (Dbf4-SGASG-Rad53) (S. cerevisiae) (UniProt P32325)
Experiment: AUC; sedimentation velocity, 50,000 rpm, 20 °C, 2 to 310 μM, 0.2 M NaCl, 0.02 M TRIS-HCl pH 8.0, 1.4 mM 2-mercaptoethanol, 5% v/v glycerol; weighted-average s isotherm fitted to a reversible monomer-dimer equilibrium; dimer to monomers

Dbf4(5)Rad53 chimera (Dbf4-SGASG-Rad53) (from UniProt P32325 105-220; P22216 22-162)
Kd: 130 µM
stoichiometry N: 2
